Patent publication US12281162 (LANOVA MEDICINES DEVELOPMENT, dated 2025)
Changes are numbered by the printed parent chain.

B1: 6-H1L1 (antibody, V domains shown)
VH: QVQLVQSGAEVKKPGASVKVSCKASGYTFTTYTMHWVRQAPGQGLEWMGYINPSSGYTNYNQKFKDRVTMTRDTSTSTVYMELSSLRSEDTAVYYCSRLRSRGYFDYWGQGTLVTVSS
VL: DIQLTQSPSFLSASVGDRVTITCKASQNVGTAVVWYQQKPGKAPKLLIYSASNRYTGVPSRFSGSGSGTEFTLTISSLQPEDFATYYCQQYSSYPYTFGQGTKLEIK
notes: humanized 6G10D9, VH v1 x VL v1
B2: 6-H3L1 (antibody, V domains shown)
VH: B1 VH with K12A, R38K, M48L, R72A, S97A, R98S
VL: B1 VL
notes: humanized 6G10D9, VH v3 x VL v1
B3: 6-H3L2 (antibody, V domains shown)
VH: B1 VH with K12A, R38K, M48L, R72A, S97A, R98S
VL: B1 VL with A13T, A43S, Y86F
notes: humanized 6G10D9, VH v3 x VL v2
B4: 58F9G10-XI (antibody, V domains shown)
VH: EVQLQQSGPELVKTGASVKISCKASGYSFTGYYIHWVKQSHGKSLEWIGYISCYNGATSFNQKFKGKATFTVDTSSSTAYMQFNSLTSEDSAVYYCARTELRGPWFAYWGQGTLVTVSA
VL: QTVLTQSPAIMSASPGEKVTMTCSASSSVSYMNWYQQKSGTSPKRWIYDTSKLASGVPARFSGSGSGTSYSLTISSMEAEDAATYYCQQWSNNPLTFGAGTKLELK
notes: also called 58F9G10 (chimeric); 58-XI
B5: 34-XI (antibody, V domains shown)
VH: EVHLVESGGDLVKPGGSLKLSCAASGFTFSSYGMSWVRQTPDKRLEWVATISSGGSYTYYPDSVKGRFTISRDNAKNTLNLQMSSLKSEDTAMYYCARQGGDAMDYWGQGTSVTVSS
VL: DIVLTQSPATLSVTPGDSVSLSCRASQSINNNLHWYQQKSHESPRLLIKYASQSISGIPSRFSGSGSGTDFTLSINSVETEDFGMYFCQQSNSRLTFGAGTKLELK
notes: also called 34D3H1 (chimeric)
B6: 34-H1L1 (antibody, V domains shown)
VH: EVQLVESGGGLVKPGGSLRLSCAASGFTFSSYGMSWVRQAPGKGLEWVSTISSGGSYTYYPDSVKGRFTISRDNAKNSLYLQMNSLRAEDTAVYYCARQGGDAMDYWGQGTLVTVSS
VL: DIQMTQSPSSLSASVGDRVTITCRASQSINNNLHWYQQKPGKAPKLLIYYASQSISGVPSRFSGSGSGTDFTLTISSLQPEDFATYYCQQSNSRLTFGGGTKVEIK
notes: humanized 34D3H1, VH v1 x VL v1
B7: 37B9C4-XI (antibody, V domains shown)
VH: EVNLEESGGGLVQPGGSMKLSCVASGFTFSDYWMNWVRQSPEKGLEWVAEIRLKSNNYATHYAESVKGRFTISRDDSKSSVYLQMNNLRAEDTGIYYCTRPLLWFRRYYAMDYWGQGTSVTVSS
VL: DIQMTQTTSSLSASLGDRITISCSASQGISNYLNWYQQKPDGTVKLLIYYTSSLHSGVPSRFSGSGSGTDYSLTISNLEPADIATYYCQQYSKLPFTFGSGTKLEIK
notes: also called 37B9C4 (chimeric); 37-XI
B8: 37-H1L1 (antibody, V domains shown)
VH: EVQLVESGGGLVQPGGSLRLSCAASGFTFSDYWMNWVRQAPGKGLEWVAEIRLKSNNYATHYAESVKGRFTISRDNAKNSLYLQMNSLRAEDTAVYYCARPLLWFRRYYAMDYWGQGTLVTVSS
VL: DIQMTQSPSSLSASVGDRVTITCSASQGISNYLNWYQQKPGKAPKLLIYYTSSLHSGVPSRFSGSGSGTDFTLTISSLQPEDFATYYCQQYSKLPFTFGQGTKLEIK
notes: humanized 37B9C4, VH v1 x VL v1; also called 37B9C4 (H1L1)
B9: 38A10E9A11 (chimeric) (antibody, V domains shown)
VH: QVQLQQSGAELARPGASVKMSCKASGYTFTTYTMHWVKQRPGQGLEWIGYINPSSGYTNYNQKFKDKATLTAGKSSSTAYMQLSSLTSEDSAVYYCASLRSRGYFDYWGRGTTLTVSS
VL: DIVMTQSQKFLSTSVGDRVSITCKASQNVGTAVAWYQQKPGQSPKLLIYSASNRYTGVPDRFTGSGSGTDFTLTISNMQSEDLAGYFCQQYSSYPYTFGGGTKLEIK
notes: also called 38A9E10A11
B10: 40A5B2 (chimeric) (antibody, V domains shown)
VH: EVQLQQSGPELVKPGASVKMSCKASGYTFTRNIMHWVKQKPGQGLEWIGYINPYNAGSKYNEKFKGKATLTSDISSSTAYMELSSLTSEDSAVYYCAREEVYYRYGAWFAYWGHGTLVTVSA
VL: DIVLTQSPASLAVSLGQRATISCRASQSVSTSSYSYMHWYQQKPGQPPKLLIKYASNLESGVPARFSGSGSGTDFTLNIHPVEEEDTATYYCQHSWEIPRTFGGGTKLEIK
B11: 29B2C10 (chimeric) (antibody, V domains shown)
VH: EVQLQQSGPELVKPGASMKLSCKASGYSFTGYTMHWVKQSHGENLEWIGLINPYNGGTNYNQKFKGKATLTVDKSSSTAYMELLSLTSEDSAVYYCSRWGLRRAMDYWGQGTSVTVSS
VL: DIVMTQSQKFMSTSVGDRVSVTCKASQNVGSNVAWYQQKPGQSPKALIYSASYRYSGVPDRFTGNGSGTDFTLTISNVQSEDLAEYFCQQYYNSPWTFGGGTKLEIK
B12: 21C3C11B3 (chimeric) (antibody, V domains shown)
VH: QVQLQQSGAELVRPGTSVKVSCKASGYAFINYLIEWIKQRPGQGLEWIGMINPGSGGTNYNEKFKDKATLTADKSSSTAYMQLSSLTSDDSAVYFCARNWDVWGQGTTLTVSS
VL: DVVMTQSPLSLPVSLGDQASVSCRSSQSLVHSTGNTYLHWYLQKPGQSPKLLIYKVSNRFSGVPDRFSGSGSGTDFTLKISRVEAEDLGVYFCSQSTHVPWTFGGGTKLEIK

What follows are binders tested against T1, human G-protein-coupled receptor family C group 5 member D (GPRC5D) (human, UniProt Q9NZD1 1-345) (assay: FACS, CHO-K1/GPRC5D).
T1 construct: whole, on cells; also called human GPRC5D protein
T1 sequence (Q9NZD1 whole entry): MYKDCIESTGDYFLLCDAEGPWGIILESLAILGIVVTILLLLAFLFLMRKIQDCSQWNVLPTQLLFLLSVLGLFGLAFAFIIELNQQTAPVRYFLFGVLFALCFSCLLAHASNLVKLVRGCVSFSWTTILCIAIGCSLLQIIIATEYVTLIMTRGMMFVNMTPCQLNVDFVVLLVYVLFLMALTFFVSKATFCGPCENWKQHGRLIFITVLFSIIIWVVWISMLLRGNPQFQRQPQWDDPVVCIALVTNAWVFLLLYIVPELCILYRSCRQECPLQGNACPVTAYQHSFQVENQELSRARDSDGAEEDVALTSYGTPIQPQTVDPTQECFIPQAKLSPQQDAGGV
Work on B1 yielded a Bottom of 193, a LogEC50 of roughly 3.1 and a Span of roughly 6200. For the same binder, the Top was roughly 6400.
With B2 the Bottom was -205, the LogEC50 was 2.35 and the Span was 74500. It also gave a Top of 74300.
Binder B3 has a Bottom of 68.9, a LogEC50 of 2.24 and a Span of 47400. The Top was 47500.

Biological target: T1, human G-protein-coupled receptor family …
Test: FACS, CHO-K1/GPRC5D
Remark: another data set of the same source
For B4, the Bottom was 6700, the LogEC50 was 0.292 and the Span was 121000. The Top was 127000.

Biological target: T1, human G-protein-coupled receptor family …
Test: FACS, CHO-K1/GPRC5D
Remark: another data set of the same source
For B5, the Bottom was 16500, the LogEC50 was 0.495 and the Span was 176000. For the same binder, the Top was 192000.
Work on B6 yielded a Bottom of 10900, a LogEC50 of 0.591 and a Span of 186000. The Top was 197000.

Biological target: T1, human G-protein-coupled receptor family …
Test: FACS, CHO-K1/GPRC5D
Remark: another data set of the same source
B7 showed a Bottom of 11700, a LogEC50 of 0.236 and a Span of 177000. The Top was 188000.
With B8 the Bottom was 9600, the LogEC50 was 0.357 and the Span was 169000. It also gave a Top of 178000.

What follows are binders tested against T1, human G-protein-coupled receptor family … (assay: FACS, NCI-H929 cells).
For B4, the Bottom was 261, the LogEC50 was 0.16 and the Span was 14500. For the same binder, the Top was 14700.
B7 was tested, and the Bottom was 338, the LogEC50 was -0.0562 and the Span was 13500. The Top was 13800.
B5 gave a Bottom of 181, a LogEC50 of 0.759 and a Span of 18000. The Top was 18100.
With B6 the Bottom was 199, the LogEC50 was 0.805 and the Span was 17700. It also gave a Top of 17900.
B8 was tested, and the Bottom was 342, the LogEC50 was -0.199 and the Span was 13200. It also gave a Top of 13500.

These binders were tested against T1, human G-protein-coupled receptor family … (assay: FACS, CHO-K1/human GPRC5D).
Work on B4 yielded a Bottom of 52.2, a LogEC50 of 0.556 and a Span of 107000. For the same binder, the Top was 107000.
Work on B7 yielded a Bottom of 793, a LogEC50 of 0.388 and a Span of 113000. It also gave a Top of 113000.
B5 gave a Bottom of 689, a LogEC50 of 0.578 and a Span of 117000. It also gave a Top of 118000.
B6 gave a Bottom of 171, a LogEC50 of 0.781 and a Span of 119000. It also gave a Top of 119000.
For B8, the Bottom was 523, the LogEC50 was 0.511 and the Span was 102000. It also gave a Top of 102000.

The binders below were run against T1, human G-protein-coupled receptor family … (assay: FACS, CHO-K1/human GPRC5D, chimeric antibody).
Description: CHO—K1 cells stably expressed human GPRC5D, were harvested from flasks. 100 µl of 1×10⁶ cells/ml of cells were incubated with primary chimeric antibodies in 3-fold serial dilutions starting from 300 nM to 0.001 nM for 30 minutes on ice. After being washed with 200 µl of FACS buffer twice, cells were incubated with secondary antibody for 30 minutes on ice. Cells were washed with 200 µl of FACS buffer twice and transferred to BD Falcon 5 ml tube and analyzed by FACS.
With B9 the Bottom was 3020, the LogEC50 was 0.245 and the Span was 384000. For the same binder, the Top was 387000.
B4 gave a Bottom of -522, a LogEC50 of 0.36 and a Span of 415000. The Top was 415000.
In the case of B10, the Bottom is reported as 1490, the LogEC50 is reported as 0.344 and the Span is reported as 439000. It also gave a Top of 440000.
B7 was tested, and the Bottom was 2080, the LogEC50 was 0.249 and the Span was 403000. For the same binder, the Top was 405000.
Work on B5 yielded a Bottom of 3450, a LogEC50 of 0.521 and a Span of 504000. For the same binder, the Top was 508000.
Work on B11 yielded a Bottom of 4330, a LogEC50 of 0.342 and a Span of 426000. For the same binder, the Top was 430000.
B12 was tested, and the Bottom was 5770, the LogEC50 was 0.229 and the Span was 398000. The Top was 404000.
